Laboratory results reported in patent publication US20200297760A1 (JUNO THERAPEUTICS, published 2020).
No end group written: not given here.

B1: Synthetic peptide WVKRGRKKA (L34A) (peptide)
peptide: WVKRGRKKA
notes: Synthetic 9-mer variant of the CD28 transmembrane / 4-1BB costimulatory junction region
B2: AFIIFWVRR synthetic peptide K28R (SEQ ID NO: 101) (peptide)
peptide: AFIIFWVRR
notes: Synthetic 9-mer from the CD28/4-1BB junction region
B3: WVQRGNKKA synthetic peptide K28Q/L34A (SEQ ID NO: 92) (peptide)
peptide: WVQRGNKKA
modifications: not fully specified
notes: as for B2

Experiments:
[1] = biological target: T1, HLA-A*02:01 (recombinant MHC class I molecule) (human); assay: REVEAL MHC-peptide binding assay, recombinant MHC, score normalised to positive control = 100
T1 construct: Recombinant MHC used in the ProImmune REVEAL assay; also called HLA-A2:01
Procedure: (§1) Specifically, assessment was of a series of overlapping 9-mer peptides derived from the sequence […] (set forth in SEQ ID NO: 7), which contains a portion of the CD28 transmembrane domain and 4-1BB costimulatory domain spanning the junction between the domains (bond joining the two amino acids noted in underline). In addition, a series of overlapping 9-mer peptides of each of a number of different variants of this portion also were assessed, each variant containing a mutation or mutations in this region as described in Example 2.
(§2) The various 9-mer overlapping peptides were synthesized and their purity tested by MALDI-TOF Mass Spectrometry.

[2] = biological target: T2, HLA-A*03:01 (recombinant MHC class I molecule) (human); assay: as above
T2 construct: Recombinant MHC used in the ProImmune REVEAL assay
Procedure: as §1, §2

[3] = biological target: T3, HLA-A*11:01 (recombinant MHC class I molecule) (human); assay: REVEAL MHC-peptide binding assay, stabilisation of ternary complex with recombinant MHC
T3 construct: Recombinant MHC molecule of the ProImmune REVEAL assay
Procedure: as §1, §2

[4] = biological target: T4, HLA-B*08:01 (recombinant MHC class I molecule) (human); assay: as above
T4 construct: Recombinant MHC molecule of the ProImmune REVEAL assay
Procedure: as §1, §2

Binder | In Vitro Score [1] | In Vitro Score [2] | In Vitro Score [3] | In Vitro Score [4]
B1 | 4.5 % of positive control peptide | 0.9 % of positive control peptide | – | –
WVQRGNKKS (not fully specified, Synthetic 9-mer junction variant) [Synthetic peptide WVQRGNKKS (K28Q/L34S as labelled)] | 1.2 % of positive control peptide | 0.7 % of positive control peptide | – | –
WVQRGNKKA (not fully specified, Synthetic 9-mer junction variant) [Synthetic peptide WVQRGNKKA (K28Q/L34A as labelled)] | 1.9 % of positive control peptide | 1.2 % of positive control peptide | – | –
B2 | – | – | 1.5 % of positive control peptide | 0.3 % of positive control peptide
B3 | – | – | 0.8 % of positive control peptide | 0.7 % of positive control peptide
